Assays:
[1] = target: T1, hMet.mmh (human MET extracellular domain with C-terminal myc-myc-hexahistidine tag) (human, UniProt P08581 309-914; P08581 27-307); test: SPR 37C, antibody captured
T1 construct: soluble monomeric MET; also called monomeric human MET
Method: Kinetic association (kₐ) and dissociation (kd) rate constants were determined as described in Example 3.

human MET on cells [2] = target: T2, human MET on cells (human, UniProt P08581 25-1390); test: cell-based or functional assay
human MET on cells [3] = target: T2, human MET on cells; test: cell-based or functional assay; remark: listed apart in the source
Wherever % Inhibition, HEK293/SRE-Luc Blocking Activity (HGF, 1 h mAb pre-bind) is given: test concentration or dose not given here.

T1 sequence (P08581 other isoform, or with tags, fused parts or gaps limits assumed, chain 1 of 2): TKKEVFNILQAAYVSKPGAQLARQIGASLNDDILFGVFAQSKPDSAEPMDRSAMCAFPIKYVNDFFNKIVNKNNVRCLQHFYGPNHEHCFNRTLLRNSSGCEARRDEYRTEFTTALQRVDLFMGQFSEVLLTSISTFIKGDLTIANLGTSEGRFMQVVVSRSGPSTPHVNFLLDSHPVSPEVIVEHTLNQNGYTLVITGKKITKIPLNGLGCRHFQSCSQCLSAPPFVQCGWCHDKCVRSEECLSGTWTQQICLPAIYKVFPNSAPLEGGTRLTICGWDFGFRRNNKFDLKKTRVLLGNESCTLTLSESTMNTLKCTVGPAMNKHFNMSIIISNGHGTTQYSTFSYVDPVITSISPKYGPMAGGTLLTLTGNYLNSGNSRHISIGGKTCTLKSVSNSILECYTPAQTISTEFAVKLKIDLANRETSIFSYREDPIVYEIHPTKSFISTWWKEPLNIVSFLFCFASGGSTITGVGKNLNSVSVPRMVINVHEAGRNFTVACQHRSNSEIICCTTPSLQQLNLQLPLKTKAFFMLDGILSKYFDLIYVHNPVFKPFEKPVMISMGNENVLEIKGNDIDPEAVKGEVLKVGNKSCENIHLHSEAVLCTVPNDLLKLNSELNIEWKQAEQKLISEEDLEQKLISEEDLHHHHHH
T1 sequence (P08581 27-307 limits assumed, chain 2 of 2): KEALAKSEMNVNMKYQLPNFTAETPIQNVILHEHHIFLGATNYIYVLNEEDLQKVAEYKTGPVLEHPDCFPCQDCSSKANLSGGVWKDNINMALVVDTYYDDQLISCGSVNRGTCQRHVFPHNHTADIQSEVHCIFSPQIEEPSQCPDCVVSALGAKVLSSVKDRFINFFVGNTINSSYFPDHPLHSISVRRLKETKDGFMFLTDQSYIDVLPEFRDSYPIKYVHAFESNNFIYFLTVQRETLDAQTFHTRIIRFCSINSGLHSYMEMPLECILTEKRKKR
T2 sequence (P08581 25-1390 limits assumed, form in doubt): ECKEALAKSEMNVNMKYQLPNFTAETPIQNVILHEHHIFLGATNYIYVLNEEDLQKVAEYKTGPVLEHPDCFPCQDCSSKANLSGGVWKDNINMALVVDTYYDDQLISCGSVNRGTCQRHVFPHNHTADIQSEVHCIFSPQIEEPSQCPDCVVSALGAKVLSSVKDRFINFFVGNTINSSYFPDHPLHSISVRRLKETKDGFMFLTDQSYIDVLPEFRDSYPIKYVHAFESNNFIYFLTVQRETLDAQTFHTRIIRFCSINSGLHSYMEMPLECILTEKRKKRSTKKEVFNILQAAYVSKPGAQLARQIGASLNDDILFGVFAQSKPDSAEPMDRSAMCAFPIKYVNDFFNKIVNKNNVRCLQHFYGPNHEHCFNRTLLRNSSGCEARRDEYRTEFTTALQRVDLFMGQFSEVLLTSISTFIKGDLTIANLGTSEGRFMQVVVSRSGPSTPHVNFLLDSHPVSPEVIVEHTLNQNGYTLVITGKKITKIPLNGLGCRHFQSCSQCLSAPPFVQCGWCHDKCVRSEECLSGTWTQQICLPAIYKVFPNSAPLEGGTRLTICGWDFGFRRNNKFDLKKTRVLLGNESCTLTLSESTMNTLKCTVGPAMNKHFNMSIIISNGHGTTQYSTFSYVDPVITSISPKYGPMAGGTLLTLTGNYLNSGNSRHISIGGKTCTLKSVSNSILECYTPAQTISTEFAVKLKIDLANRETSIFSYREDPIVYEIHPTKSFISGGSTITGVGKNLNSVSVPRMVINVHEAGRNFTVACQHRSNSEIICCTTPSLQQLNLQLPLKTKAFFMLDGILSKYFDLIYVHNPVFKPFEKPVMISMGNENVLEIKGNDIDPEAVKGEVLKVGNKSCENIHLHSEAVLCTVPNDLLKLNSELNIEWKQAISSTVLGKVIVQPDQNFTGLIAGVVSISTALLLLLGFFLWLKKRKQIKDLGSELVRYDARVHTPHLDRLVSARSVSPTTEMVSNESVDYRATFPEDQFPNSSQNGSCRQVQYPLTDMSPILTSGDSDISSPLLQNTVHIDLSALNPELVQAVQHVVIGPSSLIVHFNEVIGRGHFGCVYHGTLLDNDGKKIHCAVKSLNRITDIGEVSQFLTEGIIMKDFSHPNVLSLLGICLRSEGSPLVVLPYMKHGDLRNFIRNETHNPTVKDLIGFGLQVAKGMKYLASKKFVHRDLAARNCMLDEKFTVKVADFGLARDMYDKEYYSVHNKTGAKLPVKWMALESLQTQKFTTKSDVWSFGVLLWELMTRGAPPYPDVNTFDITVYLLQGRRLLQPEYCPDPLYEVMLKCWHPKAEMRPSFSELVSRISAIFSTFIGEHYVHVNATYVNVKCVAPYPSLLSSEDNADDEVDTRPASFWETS

Row | T½ [1] | koff [1] | % Inhibition, HEK293/SRE-Luc Blocking Activity (HGF, 1 h mAb pre-bind) (human MET on cells [2]) | EC50, Ligand (HGF)-Independent HEK293/SRE-Luc Activation (human MET on cells [2]) | Fold Response, Ligand (HGF)-Independent HEK293/SRE-Luc Activation (human MET on cells [2]) | Relative MET Level, SNU5 cells, 18 hrs (human MET on cells [3]) | Binder
1 | 19.5 min | 0.000592 s⁻¹ | – | – | – | – | H4H16448D (bispecific antibody, human IgG4, V domains shown, MET x MET bispecific, expressed as human IgG4; also called bispecific antibody No. 219) VH 1: QVQLVESGGGVVQPGRSLRLSCVASGFSFSNFGMHWVRQAPGKGLEWVAIIWYDGSNKYYSDSVKGRFTISRDNSKNTLYLQMNSLRVDDTAVYYCARFDRWKFDAFDIWGQGTMVTVSS VH 2: EVQLVESGGGLVQPGGSLRLSCAASGFIVTTNYMTWLRQAPGKGLEWVSLIYSSGHTYYADSVKGRFTISRHNSKNTLYLQMDSLRAEDTAVYYCASAFAADVFDIWGQGTMVTVSS VL: not shown
2 | 35.4 min | 0.000326 s⁻¹ | – | – | – | – | H4H14637D (bispecific antibody, human IgG4, V domains shown, MET x MET bispecific, expressed as human IgG4; also called bispecific antibody No. 90) VH 1: QVQLVESGGGVVQPGTSLRLSCVASGFTFRNFGMHWVRQAPGKGLEWVANIWFDGSNENYVESIQGRFTISRDNSKNTLNLQMNSLRAEDSAVYYCVREGILGTTNPYDAFDVWGQGTMVTVSS VH 2: EVQLVESGGGLVQPGGSLRLSCAASGFIVTTNYMTWLRQAPGKGLEWVSLIYSSGHTYYADSVKGRFTISRHNSKNTLYLQMDSLRAEDTAVYYCASAFAADVFDIWGQGTMVTVSS VL: not shown
3 | 39.3 min | 0.000294 s⁻¹ | – | – | – | – | H4H16449D (bispecific antibody, human IgG4, V domains shown, MET x MET bispecific, expressed as human IgG4) VH 1: QVQLVESGGGVVQPGRSLRLSCAASGFTFSSFAMHWVRQAPGKGLEWVAVIWYDGSNDYYAASVKGRFTISRDNSKNTLYLEMNRLRAEDTAVYHCARDNWNYWGGMDVWGQGTTVTVSS VH 2: EVQLVESGGGLVQPGGSLRLSCAASGFIVTTNYMTWLRQAPGKGLEWVSLIYSSGHTYYADSVKGRFTISRHNSKNTLYLQMDSLRAEDTAVYYCASAFAADVFDIWGQGTMVTVSS VL: not shown
4 | ≥ 1160 min | ≤ 1e-05 s⁻¹ | – | – | – | – | H4H14640D (bispecific antibody, human IgG4, V domains shown, MET x MET bispecific, expressed as human IgG4; also called bispecific antibody No. 138) VH 1: QVQLVQSGTEVKEPGASVKVSCKASGYSFTTYGISWLRQAPGQGLEWMGWISTYNGDTISAQMLQDRVTLTADTSTRTAYMELRSLRSDDTAVYYCARGHEYDSLVYSYWGQGTLVTVSS VH 2: EVQLVESGGGLVQPGGSLRLSCAASGFIVTTNYMTWLRQAPGKGLEWVSLIYSSGHTYYADSVKGRFTISRHNSKNTLYLQMDSLRAEDTAVYYCASAFAADVFDIWGQGTMVTVSS VL: not shown
5 | 29.4 min | 0.000393 s⁻¹ | – | – | – | – | H4H16445D (bispecific antibody, human IgG4, V domains shown, MET x MET bispecific, expressed as human IgG4; also called bispecific antibody No. 26) VH 1: QVQLVESGGGVVQPGGSLRLSCAASGFTFSGYGMHWVRQAPGKGLEWMAVIWYDGSNDYYPDSVKGRFTISRDNSKNTLYLQMNSLRVEDTAVYYCARDAWDLLRSFDYWGQGTLVTVSS VH 2: EVQLVESGGGLVQPGGSLRLSCAASGFIVTTNYMTWLRQAPGKGLEWVSLIYSSGHTYYADSVKGRFTISRHNSKNTLYLQMDSLRAEDTAVYYCASAFAADVFDIWGQGTMVTVSS VL: not shown
6 | 141 min | 8.21e-05 s⁻¹ | – | – | – | – | H4H14635D (bispecific antibody, human IgG4, V domains shown, MET x MET bispecific, expressed as human IgG4; also called bispecific antibody No. 42) VH 1: QVQLVESGGGVVQPGRSLRVSCVVSGFTFSSFGMHWVRQAPDKGLEWVAVIWYDGSNDYYSDSVKGRFTISRDNSKNTLFLQMNRLRAEDTAVYYCARANNWNRFDAFDLWGQGTMVTVSS VH 2: EVQLVESGGGLVQPGGSLRLSCAASGFIVTTNYMTWLRQAPGKGLEWVSLIYSSGHTYYADSVKGRFTISRHNSKNTLYLQMDSLRAEDTAVYYCASAFAADVFDIWGQGTMVTVSS VL: not shown
7 | ≥ 1160 min | ≤ 1e-05 s⁻¹ | – | – | – | – | H4H14634D (bispecific antibody, human IgG4, V domains shown, MET x MET bispecific, expressed as human IgG4; also called bispecific antibody No. 10) VH 1: QVQLQESGPGLVKPSETLSLTCTVSGDSISSYYWTWIRQPPGKGLEWIGYIFYRGGTTYNPSLKSRVTISVDTSKNQFSLKLRSVTAADTAVYYCARGDDLLVVTSVYWYIDLWGRGTLVTVSS VH 2: EVQLVESGGGLVQPGGSLRLSCAASGFIVTTNYMTWLRQAPGKGLEWVSLIYSSGHTYYADSVKGRFTISRHNSKNTLYLQMDSLRAEDTAVYYCASAFAADVFDIWGQGTMVTVSS VL: not shown
8 | – | – | 74% | 280 pM | 2.8 fold | 0.5 relative to control (hFc) | H4H14636D (bispecific antibody, human IgG4, V domains shown) VH 1: EVQLVESGGGLVQPGGSLRLSCAASGFIFSNYEMNWVRQAPGKGLEWISYITSSGNMKYYADSVKGRFTISRDNDKNSLYLQMSSLRVEDTAVYYCVRGGRFLEWLTYYVMVVWGQGTTVTVSS VH 2: EVQLVESGGGLVQPGGSLRLSCAASGFIVTTNYMTWLRQAPGKGLEWVSLIYSSGHTYYADSVKGRFTISRHNSKNTLYLQMDSLRAEDTAVYYCASAFAADVFDIWGQGTMVTVSS VL: not shown
9 | 35.3 min | 0.000327 s⁻¹ | – | – | – | – | H4H14641D (bispecific antibody, human IgG4, V domains shown, MET x MET bispecific, expressed as human IgG4) VH 1: QVQLVESGGGVVQPGRSLRLSCSASGFSFSHFGMHWVRQVPGGGLEWVTSIWFDGSNRYYADSLKGRFTISRDNSKNTLYLEMNSLRAEDTAVYYCVREGILGTTNPYDVFDVWGQGTMVTVSS VH 2: EVQLVESGGGLVQPGGSLRLSCAASGFIVTTNYMTWLRQAPGKGLEWVSLIYSSGHTYYADSVKGRFTISRHNSKNTLYLQMDSLRAEDTAVYYCASAFAADVFDIWGQGTMVTVSS VL: not shown

Reference: patent US20220040319A1 (Regeneron, published 2022)
